This note sets out measurements from patent US20220162304A1.

The target in assay [1] is fusion protein of human CD79B extracellular domain (ECD) and His tag (human CD79B ECD-His) (human) (UniProt P40259). Kind of assay: SPR (Biacore 8K; by Example 2 human CD79B-His immobilised on CM5 chip, antibody flowed over). Background: SPR reads the build-up and loss of mass on a sensor chip optically.
The target of assay [2] is human CD79B antigen (coating antigen of the ELISA, construct not stated) (human) (UniProt P40259). Kind of assay: ELISA, plate coated with antigen at 1 ug/mL, serial antibody dilutions, OD450.
human CD79B antigen (coating antigen of the ELISA, construct not stated) (human), sequence (P40259 29-159 limits assumed): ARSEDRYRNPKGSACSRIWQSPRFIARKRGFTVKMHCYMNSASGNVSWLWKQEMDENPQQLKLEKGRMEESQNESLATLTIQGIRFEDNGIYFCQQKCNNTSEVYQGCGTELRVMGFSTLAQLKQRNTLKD

fusion protein of human CD79B extracellular domain (ECD) and His tag (human CD79B ECD-His) (human), sequence (P40259 29-159 limits assumed): as above

For the substance SN8 (antibody), in assay [1], the Kd (as a rule, the constant that tells how readily two partners part at equilibrium) turned out to be 5.98 nM. The concentration giving a half-maximal response (EC50 (read off the curve)) (usually the concentration needed to bring the measured effect to its halfway point) in assay [2] amounted to 0.1 nM.
